In PMC6856630, “Structures of neurexophilin–neurexin complexes reveal a regulatory mechanism of alternative splicing” (The EMBO Journal, 2019):
Several values for one entry are separate records, joined by “and”; a condition that tells them apart may be missing. Identical values can stand only once.

B1: Nrxn1 LNS2^SS2− (I401Q), AviTag-His, biotinylated (BLI) (domain or fragment)
chain: not shown
modifications: biotin on the AviTag (BirA)
notes: numbers count on: UniProt Q9CS84-1 (isoform 1a); Igκ signal peptide at the N-terminus; source: 293F cells, transfected, secreted, purified (Ni-NTA, BirA biotinylation, Superdex Increase 200); not shown: AviTag, C-terminal, kept; His6, C-terminal, kept
B3: Nxph3-2XFLAG-His (rat neurexophilin-3, 50-252) (ligand, UniProt Q9Z2N5 50-252, looked up)
chain: RGHISPKSRPLANSTLLGLLAPPGEVWGILGQPPNRPKQSPLPSTKVKKIFGWGDFYSNIKTVALNLLVTGKIVDHGNGTFSVHFRHNATGQGNISISLVPPSKAVEFHQEQQIFIEAKASKIFNCRMEWEKVERGRRTSLCTHDPAKICSRDHAQSSATWSCSQPFKIVCVYIAFYSTDYRLVQKVCPDYNYHSDTPYYPSG
modifications: glycans (sites not given)
notes: Neurexophilin-3, rat, residues 50-252; Expressed with an Igκ signal peptide at the N-terminus; HRV 3C site before the tags, not cut; source: 293F cells, BacMam expression system, secreted; purification not described; not shown: 2xFLAG, C-terminal, kept; His6, C-terminal, kept
B4: Nxph1-2XFLAG-His (mature rat neurexophilin-1, 118-271, glycosylated) (ligand, UniProt Q63366 118-271, looked up)
chain: MFGWGDFHSNIKTVKLNLLITGKIVDHGNGTFSVYFRHNSTGQGNVSVSLVPPTKIVEFDLAQQTVIDAKDSKSFNCRIEYEKVDKATKNTLCNYDPSKTCYQEQTQSHVSWLCSKPFKVICIYISFYSTDYKLVQKVCPDYNYHSDTPYFPSG
modifications: N-linked glycans at N146, N156 and N162
notes: Neurexophilin-1, rat, mature form, residues 118-271; Expressed with an Igκ signal peptide at the N-terminus; HRV 3C site before the tags, not cut for the biochemical studies; source: 293F cells, BacMam expression system, secreted; purification of Nxph1 alone not described; not shown: 2xFLAG, C-terminal, kept; His6, C-terminal, kept
B6: Nrxn1 LNS2^SS2−, AviTag-His, biotinylated (BLI) (domain or fragment)
chain: not shown
modifications: biotin on the AviTag (BirA)
notes: as for B1

Key:
[1] = target: B3; assay: BLI; Octet RED384; biotinylated neurexin LNS2 on streptavidin tips, Nxph in solution; 25°C, PBS pH 7.4, 50 nM TCEP, 1% BSA; global fit, double reference subtraction; settings: both partners purified
[2] = target: B4; assay: as above; settings: both partners purified
[3] = target: the molecule itself; assay: SEC-MALS; Superdex 200 10/300, 0.5 ml/min, PBS pH 7.4
[4] = target: the molecule itself; assay: SEC-MALS + other: SEC-SAXS; Nxph1 alone; SEC-MALS on Superdex 200 10/300 in PBS pH 7.4, SEC-SAXS on Superdex Increase 200 3.2/300
[5] = target: B6; assay: BLI; Octet RED384; biotinylated neurexin LNS2 on streptavidin tips, Nxph in solution; 25°C, PBS pH 7.4, 50 nM TCEP, 1% BSA; global fit, double reference subtraction; settings: both partners purified
[6] = target: B1; assay: as above; settings: both partners purified
[7] = target: T1, Nrxn1 LNS2^SS2A+, AviTag-His, biotinylated (BLI) (mouse, UniProt Q9CS84-1 283-480, 283–386; 394–480, biotin on the AviTag (BirA)); assay: as above; settings: both partners purified
T1 construct: numbers count on: UniProt Q9CS84-1 (isoform 1a); Igκ signal peptide at the N-terminus; source: 293F cells, transfected, secreted, purified (Ni-NTA, BirA biotinylation, Superdex Increase 200); not shown: AviTag, C-terminal, kept; His6, C-terminal, kept

[8] = target: T2, Nrxn1 LNS2^SS2A+ (I401Q), AviTag-His, biotinylated (BLI) (mouse, UniProt Q9CS84-1 283-480, 283–386; 394–480 | I401Q, biotin on the AviTag (BirA)); assay: as above; settings: both partners purified
T2 construct: numbers count on: UniProt Q9CS84-1 (isoform 1a); Igκ signal peptide at the N-terminus; source: 293F cells, transfected, secreted, purified (Ni-NTA, BirA biotinylation, Superdex Increase 200); not shown: AviTag, C-terminal, kept; His6, C-terminal, kept

[9] = target: T3, Nrxn1 LNS2^SS2− (C293A), crystallographic construct (mouse, UniProt Q9CS84-1 283-480, 283–378; 394–480 | C293A); assay: SEC-MALS; Superdex 200 10/300, 0.5 ml/min, PBS pH 7.4; settings: both partners purified
T3 construct: Neurexin-1 alpha, mouse, LNS2 domain without insert in splice site 2, residues 283-378 joined to 394-480; numbers count on: UniProt Q9CS84-1 (isoform 1a); Expressed with an Igκ signal peptide at the N-terminus; source: HEK293S GnTI- cells, BacMam, co-expressed with Nxph1^3ND, complex purified (HisTrap, StrepTrap, 3C cleavage, Mono Q); not shown: Twin-Strep, C-terminal, cleaved

[10] = target: T4, Nrxn1 LNS2^SS2A+, crystallographic construct (mouse, UniProt Q9CS84-1 283-480, 283–386; 394–480); assay: as above; settings: both partners purified
T4 construct: Neurexin-1 alpha, mouse, LNS2 domain with the eight-residue SS2A insert (379-386), residues 283-386 joined to 394-480; numbers count on: UniProt Q9CS84-1 (isoform 1a); Expressed with an Igκ signal peptide at the N-terminus; not shown: Twin-Strep, C-terminal, cleaved
T4 sequence (Q9CS84 other isoform, or with tags, fused parts or gaps 283–386/394–480 | 283–386/394–480): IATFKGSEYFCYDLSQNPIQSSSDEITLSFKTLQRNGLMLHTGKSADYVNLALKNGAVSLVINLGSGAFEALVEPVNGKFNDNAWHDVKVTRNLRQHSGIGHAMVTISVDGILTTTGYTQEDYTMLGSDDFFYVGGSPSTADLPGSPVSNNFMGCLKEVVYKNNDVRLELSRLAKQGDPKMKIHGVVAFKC

T1 sequence (Q9CS84 other isoform, or with tags, fused parts or gaps 283–386/394–480 | 283–386/394–480): as above
T2 sequence (Q9CS84 other isoform, or with tags, fused parts or gaps with the stated changes): as the sequence (Q9CS84 other isoform, or with tags, fused parts or gaps 283–386/394–480 | 283–386/394–480) above, with I112Q counted along it
T3 sequence (Q9CS84 other isoform, or with tags, fused parts or gaps with the stated changes): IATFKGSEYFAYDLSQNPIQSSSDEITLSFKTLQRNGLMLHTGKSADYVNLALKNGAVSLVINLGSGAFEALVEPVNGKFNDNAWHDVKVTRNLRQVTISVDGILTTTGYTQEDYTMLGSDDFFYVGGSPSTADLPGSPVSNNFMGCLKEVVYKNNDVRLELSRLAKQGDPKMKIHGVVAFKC

Q: What does the source list for B1?
A: Kd [1]: 3340 nM; koff [1]: 0.00064 s⁻¹; kon [1]: 194 M⁻¹ s⁻¹

B2: Nrxn3 LNS2^SS2A+, AviTag-His, biotinylated (BLI) (domain or fragment)
chain: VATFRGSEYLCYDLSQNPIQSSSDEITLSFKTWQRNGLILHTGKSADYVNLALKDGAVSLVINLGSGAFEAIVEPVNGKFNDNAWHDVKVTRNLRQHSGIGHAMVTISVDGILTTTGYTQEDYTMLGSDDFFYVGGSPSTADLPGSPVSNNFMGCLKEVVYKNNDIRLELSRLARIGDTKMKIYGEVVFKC
modifications: biotin on the AviTag (BirA)
Q: B2 was tested. Which Kd [2] did it give?
A: 31.4 nM

Q: And the koff [2]?
A: 6.4e-05 s⁻¹

Q: What about the kon [2] of the same binder?
A: 2060 M⁻¹ s⁻¹

Q: Does B3 bind [3]?
A: binds

Q: B4 was tested. Which “stoichiometry N” value [4] did it give?
A: 2 and 4

Q: And the Kd [5]?
A: 299 nM

Q: What about the koff [5] of the same binder?
A: 0.00012 s⁻¹

Q: And the kon [5]?
A: 399 M⁻¹ s⁻¹

Q: And the Kd [6]?
A: 16.4 µM

Q: What about the koff [6] of the same binder?
A: 0.0034 s⁻¹

Q: And the kon [6]?
A: 220 M⁻¹ s⁻¹

Q: And the Kd [7]?
A: 49 nM

Q: And the koff [7]?
A: 9.7e-05 s⁻¹

Q: What about the kon [7] of the same binder?
A: 2040 M⁻¹ s⁻¹

Q: And the Kd [8]?
A: 472 nM

Q: What about the koff [8] of the same binder?
A: 0.0002 s⁻¹

Q: What about the kon [8] of the same binder?
A: 419 M⁻¹ s⁻¹

B5: Nxph1^3ND (mature rat neurexophilin-1, 118-271, N146D/N156D/N162D) (ligand, UniProt Q63366 118-271, looked up)
chain: MFGWGDFHSNIKTVKLNLLITGKIVDHGDGTFSVYFRHDSTGQGDVSVSLVPPTKIVEFDLAQQTVIDAKDSKSFNCRIEYEKVDKATKNTLCNYDPSKTCYQEQTQSHVSWLCSKPFKVICIYISFYSTDYKLVQKVCPDYNYHSDTPYFPSG
notes: Neurexophilin-1, rat, mature form, residues 118-271, the three N-linked glycosylation sites mutated to aspartic acid; Expressed with an Igκ signal peptide at the N-terminus; tags removed with HRV 3C protease; also called Nxph1 (in the crystal structures); source: HEK293S GnTI- cells, BacMam, co-expressed with LNS2, complex purified (HisTrap, StrepTrap, 3C cleavage, Mono Q); not shown: 2xFLAG, …
Q: With B5 as the binder, how does the “stoichiometry N” value [9] read?
A: 1

Q: What about the “stoichiometry N” value [10] of the same binder?
A: 1

Q: Which Kd [1] does the source give for B6 here?
A: 260 nM

Q: What about the koff [1] of the same binder?
A: 0.0001 s⁻¹

Q: And the kon [1]?
A: 209 M⁻¹ s⁻¹
